According to PMC12207370, “Macrocyclic Peptide Probes for Immunomodulatory Protein CD59: Potent Modulators of Bacterial Toxin Activity and Antibody‐Dependent Cytotoxicity” (Angewandte Chemie (International Ed. in English), 2025):

Biological target: T1, biotinylated CD59 (Homo sapiens, UniProt P13987)
T1 construct: Recombinant soluble human CD59 with an additional C-terminal cysteine residue
T1 sequence (P13987 26-102 limits assumed): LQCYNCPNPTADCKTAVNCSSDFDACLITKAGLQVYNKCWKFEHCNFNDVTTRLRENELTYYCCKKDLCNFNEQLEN
Test: mRNA-display cyclic peptide screen against CD59-biotin, NGS abundance after 6th selection round
Conditions: for Percentage Seq I: counts normalised by total counts of sample Seq I; for Percentage Seq I / Percentage Seq II: percentage of the pool; for Percentage Seq I / Percentage Seq II / Percentage Average / Percentage of the pool, averaged across the two sequencing samples / Percentage of the pool, Seq I / Percentage of the pool, Seq II: sheet R6; for Percentage Seq II: counts normalised by total counts of sample Seq II; for Percentage Average: percentage of the pool averaged across the two sequencing samples; for Counts Seq I / Counts Seq II: raw NGS counts of peptide sequence; for Counts Seq I: sequencing sample Seq I; for Counts Seq I / Counts Seq II / Counts (raw counts for peptide sequence), Seq I / Counts (raw counts for peptide sequence), Seq II: sheet R6 (6th selection round); for Counts Seq II: sequencing sample Seq II; for Counts (raw counts for peptide sequence), Seq I: NGS sample Seq I; for Counts (raw counts for peptide sequence), Seq II: NGS sample Seq II; for Percentage of the pool, averaged across the two sequencing samples: average of Seq I and Seq II; for Percentage of the pool, Seq I: counts normalised by total counts of NGS sample Seq I; for Percentage of the pool, Seq II: counts normalised by total counts of NGS sample Seq II
Text: To discover novel non‐protein CD59 ligands, we screened a library of 10^12 cyclic peptides against CD59 using mRNA‐display (Figure 2a).^[ [23], [24], [25], [26], [27], [28], [29] ^] Briefly, an mRNA library was designed in which the start codon was reprogrammed from Met to N‐chloroacetyl‐D‐Tyr (ClAc‐D‐Tyr), followed by 10–12 randomly encoded natural amino acids, a Cys residue, a (GlySer)3 linker, and a stop codon. […] The total library diversity was 1.51 × 10^13 molecules, comprising 5.02 × 10^12 molecules of each macrocycle size, covering a subset of the maximum theoretical diversity of this library design. Following in vitro translation, ClAc‐D‐Tyr spontaneously reacts with either the C‐terminal Cys or a Cys in the random region, yielding macrocyclic thioether peptides. Hits from the library were identified through iterative enrichment and amplification against biotinylated CD59, then immobilized on streptavidin beads. Fifteen hit sequences (CP‐01 to CP‐15), enriched with abundance >1% relative to the total pool of recovered binders after the 6th round of selection, were synthesized by solid phase peptide synthesis (SPPS), without the (Gly‐Ser)3 linker.
Figure 2 Discovery of macrocyclic peptide ligands with nanomolar CD59 affinity using mRNA display. a) The selection process. PCR = polymerase chain reaction, SPPS = solid phase peptide synthesis. b) Table showing details of the peptides with nanomolar affinity for CD59 as well as the binding affinity of the lead inhibitor of CD59, rILYd4. K D values are presented as the average of three technical replicates ± SEM. Structures of all peptides and SPR sensograms are presented in Figures S1 and S2. *indicates the presented sequences are the variable regions of these cyclic peptides; each is flanked by an N‐terminal Ac‐D‐Tyr cyclized to a C‐terminal Cys. R6 abundance (%) is defined as (the given number of NGS reads for a given sequence/the total number of reads of unique sequences observed in NGS)*100 following the 6th selection round. c) Representative sensogram of the interaction between CP‐06 with immobilized CD59 by SPR analysis. Inset showing the equilibrium binding curve of CP‐06 to CD‐59. Below in the box are the association and dissociation rate constants of CP‐06. Concentrations are plotted in descending order from 800‐3.1 nM in line with their position on the legend. […] (nM)'; the box with Kon/Koff has no label of its own / ILYd4: the label may be cut off at the left edge (possibly 'rILYd4') / CP-02, KD: 15.3 ± 0.2, small print, 3 or 8 uncertain / CP-03, KD: 23.4 ± 0.7, small print / CP-06, KD: 11.3 ± 0.0, small print, 3 or 8 uncertain / CP-13, KD: 10.8 ± 0.7, small print, 8 or 6 uncertain / ILYd4, KD: 48.3 ± 1.1, small print, 8 and 3 uncertain
The mRNA-display cyclic peptide screen was performed against CD59-biotin by T.E.M: DNA templates for transcription were generated by PCR in a similar manner to that previously described.^2 RNA oligonucleotides were transcribed from the DNA templates using T7 RNA polymerase and purified by phenol/chloroform extraction followed by ethanol precipitation. Oligonucleotide concentrations were determined spectroscopically by absorbance at 260 nm. In the first selection round a 1:1:1 molar ratio of NNK10/NNK11/NNK12 was used. The procedure for selection rounds 2-6 is described below; round 1 was conducted at twice the scale.
RNA encoding for the peptide library ligated to a puromycin-modified oligonucleotide was […] (final [RNA] = 2.5 µM) using a customised PURE express kit (lacking release factor 1 and methionine, supplemented with […] initiator tRNA acylated with N-chloroacetyl-d-tyrosine prepared as previously described)^3 in a final volume of 5.6 µL for 1 hour at 37 °C.
This mixture was incubated at 42 °C for 1 hour before being diluted to 500 µL with PBS (10 mM Na-PO4 pH 7.4, 2.7 mM KCl, 137 mM NaCl) and 0.5 µL taken for subsequent use in qPCR. […]

Sequence	Percentage Seq I [%]	Percentage Seq II [%]	Percentage Average [%]	Counts Seq I	Counts Seq II	Counts (raw counts for peptide sequence), Seq I	Counts (raw counts for peptide sequence), Seq II	Percentage of the pool, averaged across the two sequencing samples [%]	Percentage of the pool, Seq I [%]	Percentage of the pool, Seq II [%]
FVRGDLYSVLG	4.958	4.911	4.934	21693	2116					
VIWGSRLATGG	0.025	0.026	0.025	109	11					
HCWVRGSRDYT	0.028	0.046	0.037	122	20					
WTCHLRHDGPHA	1.997	2.114	2.056	8737	911					
IAFGSRFHSYQ	0.584	0.647	0.616	2554	279					
YGASPTSLCSGI	0.166	0.186	0.176	727	80					
CFKKRLDTVST	0.021	0.016	0.019	91	7					
FVTGNRDHTHG						45	5	0.011	0.010	0.012
STKNDYNNVPC	0.012	0.026	0.019	54	11					
WRDRLDQCVL	0.019	0.021	0.020	85	9					
CHGGRTFIYAWS	0.025	0.026	0.025	108	11					
QFAHRISSCAS	0.032	0.030	0.031	139	13					
CFVNRLSDSLSL	0.048	0.070	0.059	212	30					
YAFGSRDITYY	0.018	0.023	0.021	78	10					
VKYGNSNFVRE	0.047	0.060	0.054	207	26					
CFGGRTFIYAWS						34	5	0.010	0.008	0.012
CYGGRTFIYAWS	8.492	8.097	8.295	37156	3489					
CFSTRLSRSYGT	0.016	0.026	0.021	68	11					
FTRGNSTSVLF						51	7	0.014	0.012	0.016
HCWVRGSRNYS						46	5	0.011	0.011	0.012
SWTRGNRSSVRG						44	5	0.011	0.010	0.012
YSSGSRHWTRS						57	7	0.015	0.013	0.016
WRDRFDQCIL						60	5	0.013	0.014	0.012
RIGTSTCPFKFS	0.024	0.023	0.024	106	10					
EIRGALNWVRG	0.125	0.146	0.136	549	63					
CFYTRIDAFST	0.081	0.079	0.080	354	34					
